Results on two substances are retold here after patent US20200062827A1.

The target in experiment [1] is therapeutic human IgG1 (Bristol-Myers Squibb) (human). The experiment in a line: affinity precipitation: 5 mM C12-Z33 + 20 µM IgG1, 0.6 M Na2SO4, centrifugation, A280 of supernatant.
Experiment [2] has the same target. The experiment in a line: ITC, 15 C, PBS pH 7.4, reported per IgG1. (In general: In ITC the heat of successive injections is recorded.)
For experiment [3] the target is unchanged. The experiment in a line: ITC, 15 C, PBS pH 7.4, reported per ligand.

Turning to C12-Z33 immuno-amphiphile (peptide), in experiment [1], the percent IgG1 removed from the supernatant is over 60%.
By Kd is commonly meant the constant that tells how readily two partners part at equilibrium. In experiment [2], Z33 peptide gave a -TΔS° (kcal · mol^-1) of 43.4, a ΔG° (kcal · mol^-1) of -10 and a ΔH° (kcal · mol^-1) of -53.4. Further, in experiment [3], the -TΔS° (kcal · mol^-1) came out at 13.6, the Kd was 60 nM, the ΔG° (kcal · mol^-1) was -9.5 and the ΔH° (kcal · mol^-1) was -23.1.
